Source: PMC4858292, “Determination of the CD148-Interacting Region in Thrombospondin-1” (PLoS ONE, 2016)

B1: Trimeric TSP1 fragment, oligomerization domain + procollagen and 1^st type 1 repeat (aa 261–429) (domain or fragment, human, UniProt P07996 261-429, looked up)
chain: HKTKDLQAICGISCDELSSMVLELRGLRTIVTTLQDSIRKVTEENKELANELRRPPLCYHNGVQYRNNEEWTVDSCTECHCQNSVTICKKVSCPIMPCSNATVPDGECCPRCWPSDSADDGWSPWSEWTSCSTSCGNGIQQRGRSCDSLNNRCEGSSVQTRTCHIQECD
notes: thrombospondin-1 (TSP1), human, oligomerization domain + procollagen + 1st type 1 repeat, aa 261-429; Subcloned into HindIII and XbaI sites of the APtag-5 vector; also called trimeric TSP1 fragment containing the procollagen domain and the 1st type 1 repeat; source: HEK293E suspension culture, transient transfection, purified from culture supernatant (HisTrap Excel); not shown: Myc, C-terminal, …
B2: Trimeric TSP1 fragment, oligomerization domain + procollagen + type 1 repeats (aa 261–547) (domain or fragment, human, UniProt P07996 261-547, looked up)
chain: HKTKDLQAICGISCDELSSMVLELRGLRTIVTTLQDSIRKVTEENKELANELRRPPLCYHNGVQYRNNEEWTVDSCTECHCQNSVTICKKVSCPIMPCSNATVPDGECCPRCWPSDSADDGWSPWSEWTSCSTSCGNGIQQRGRSCDSLNNRCEGSSVQTRTCHIQECDKRFKQDGGWSHWSPWSSCSVTCGDGVITRIRLCNSPSPQMNGKPCEGEARETKACKKDACPINGGWGPWSPWDICSVTCGGGVQKRSRLCNNPTPQFGGKDCVGDVTENQICNKQDCP
notes: Subcloned into HindIII and XbaI sites of the APtag-5 vector; also called trimeric TSP1 fragment containing the procollagen domain and type 1 repeats; trimeric TSP1 fragment that contains all three type 1 repeats; source: HEK293E suspension culture, transient transfection, purified from culture supernatant (HisTrap Excel); not shown: Myc, C-terminal, kept
B3: Trimeric TSP1 fragment, oligomerization domain + procollagen + 1^st & 2^nd type 1 repeats (aa 261–490) (domain or fragment, human, UniProt P07996 261-490, looked up)
chain: HKTKDLQAICGISCDELSSMVLELRGLRTIVTTLQDSIRKVTEENKELANELRRPPLCYHNGVQYRNNEEWTVDSCTECHCQNSVTICKKVSCPIMPCSNATVPDGECCPRCWPSDSADDGWSPWSEWTSCSTSCGNGIQQRGRSCDSLNNRCEGSSVQTRTCHIQECDKRFKQDGGWSHWSPWSSCSVTCGDGVITRIRLCNSPSPQMNGKPCEGEARETKACKKDACP
notes: thrombospondin-1 (TSP1), human, oligomerization domain + procollagen + 1st and 2nd type 1 repeats, aa 261-490; Subcloned into HindIII and XbaI sites of the APtag-5 vector; source: HEK293E suspension culture, transient transfection, purified from culture supernatant (HisTrap Excel); not shown: Myc, C-terminal, kept
B4: Trimeric TSP1 fragment, oligomerization domain + procollagen (aa 261–373) (domain or fragment, human, UniProt P07996 261-373, looked up)
chain: HKTKDLQAICGISCDELSSMVLELRGLRTIVTTLQDSIRKVTEENKELANELRRPPLCYHNGVQYRNNEEWTVDSCTECHCQNSVTICKKVSCPIMPCSNATVPDGECCPRCW
notes: thrombospondin-1 (TSP1), human, oligomerization domain + procollagen, aa 261-373; Subcloned into HindIII and XbaI sites of the APtag-5 vector; also called trimeric TSP1 fragment containing the procollagen domain alone; source: HEK293E suspension culture, transient transfection, purified from culture supernatant (HisTrap Excel); not shown: Myc, C-terminal, kept

Biological target: the molecule itself
Test: SDS-PAGE in non-reducing and reducing conditions; purified fragments separated in non-reducing and reducing (50 mM DTT) conditions; colloidal blue stain and anti-Myc immunoblot

Stoichiometry N, 3:
B1, B2, B3, B4
